Assay results from patent US20210371530A1 (Merck Sharp & Dohme, published 2021).

Key:
human PD-1 on cells = human PD-1 on cells (human, UniProt Q15116 25-288); assay: cell-based or functional assay
[1] = target: T1, polyhistidine-tagged human PD-1 (hPD1-His, 98AFK) (human, UniProt Q15116 25-167, limits assumed); assay: SPR capture format; reference Mouse 08A
T1 construct: Lot 98AFK; also called human PD1-His; Human PD-1-His; not shown: polyhistidine tag
Method: A surface plasmon resonance (SPR)-based assay utilizing capture mode was used to determine the binding kinetics and affinities of anti-PD-1 antibodies against polyhistidine-tagged human PD-1 (hPD1-His, 98AFK). Following manufacture instructions, a series S sensor chip CM5 (GE Healthcare, BR100530) was activated using an amine-coupling kit (GE Healthcare, BR100050). Either human capture kit (anti-human Fc, 25 μg/mL, GE Healthcare, BR100839) or mouse capture kit (anti-mouse Fc, 30 μg/mL, GE Healthcare, BR100838) antibody diluted in the supplied pH 5.0, 10 mM sodium acetate buffer was immobilized onto the activated surface for 7 minutes. After immobilization, surfaces were deactivated with 1M ethanolamine/HCl (pH 8.5) for 7 minutes. The final immoblization levels reached ˜8,000 resonance units (RU) for mouse capture or 12,000 RU for human capture in each of the four flow cells.
Binding kinetics were measured on a biacore T200 in HBS-EP+(0.01 M HEPES pH 7.4, 0.15 M NaCl, 3 mM EDTA, 0.05% v/v Surfactant P20) running buffer at 25° C. Antibodies were captured either on mouse or human Fc capture surfaces at 10 μL/min flow rate. Antibodies were captured on flow cells 2, 3 and 4. Flow cell 1 was used as a reference with no antibody captured. A 6-point, 2-fold serial dilutions of the analyte 98AFK (hPD1-His), starting at 20 nM, were prepared in the running buffer (HBS-EP+). Two buffer blanks were included for double referencing. Titration series were injected for 3 minutes at 50 μl/min followed by 600 seconds of dissociation. After each cycle, surfaces were regenerated with a 30 second injection of 3M MgCl2 at […] on the anti-human Fc chip or 180 seconds of 10 mM Glycine pH 1.7 at 10 μl/min on the anti-mouse Fc chip.
Sensorgram processing and data analysis were performed with Biacore T200 Evaluation Software Version 2.0.4 (GE Healthcare). […] Processed curves were globally fitted to a 1:1 binding model to determine the association rate constant, kₒₙ (M⁻¹s⁻¹, where “M” equals molar and “s” equals seconds) and the dissociation rate constant, koff (s⁻¹). These rate constants were used to calculate the equilibrium dissociation constant, KD (M)=koff/kₒₙ.

[2] = target: T1, polyhistidine-tagged human PD-1 …; assay: SPR solution affinity; reference Humanized 08A IgG4 S61N (98AIO)
Method: The titration series were incubated for 16-24 hours to reach equilibrium at room temperature. The unbound sites were measured using a BIAcore chip immobilized with antigen in a competition mode where SPR signal detected corresponded to unbound antibody.
The titration series following >16 hr. incubation were injected over the sensor chip immobilized with hPD1-His (above). Free, unbound antibodies concentrations were measured as proportional to RU after 120 seconds (for 500 pM mAb series) or 400 seconds (for 100 pM mAb series) of injection at 10 μL/min. After each cycle, surfaces were regenerated with a 30 second injection of 1:1 mixture of 3M MgCl2 and pH 2.0 10 mM glycine at 30 μL/min
Data analyses were performed using KINEXA Pro Version 1.02 (Sapydyne) where RUs were normalized and plotted against concentrations.

T1 sequence (Q15116 25-167 limits assumed): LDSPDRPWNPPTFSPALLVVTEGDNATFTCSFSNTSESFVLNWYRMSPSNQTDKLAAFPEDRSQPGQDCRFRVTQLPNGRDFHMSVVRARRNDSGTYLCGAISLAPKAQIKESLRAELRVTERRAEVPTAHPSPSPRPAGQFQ
human PD-1 on cells, sequence (Q15116 25-288): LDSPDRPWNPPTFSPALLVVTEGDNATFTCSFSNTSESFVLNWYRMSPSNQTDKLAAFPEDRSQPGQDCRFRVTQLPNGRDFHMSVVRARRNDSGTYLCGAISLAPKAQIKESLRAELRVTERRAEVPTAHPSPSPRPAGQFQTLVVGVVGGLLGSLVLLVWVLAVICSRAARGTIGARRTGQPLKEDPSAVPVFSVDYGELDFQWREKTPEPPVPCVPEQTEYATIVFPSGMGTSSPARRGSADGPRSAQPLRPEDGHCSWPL

AVG EC50 (nM), IL-2 luciferase reporter, Jurkat.hPD-1.IL2luc + THP-1.PD-L1 assay (human PD-1 on cells) | KD (REF) / KD [1] | KD (REF) / KD [2] | Binder
2.54 nM |  |  | Anti-PD-1/LAG3 bispecific antibody 90ASU (bispecific antibody, human IgG1, kappa, L234A L235A) heavy 1: not shown light 1: DIVMTQTPLSLSVTPGQPASISCRASKSVSTSGFSYLHWYLQKPGQPPQLLIFLASNLESGVPDRFSGSGSGTDFTLKISRVEAEDVGVYYCQHSWELPLTFGQGTKLEIKRTVAAPSVFIFPPSDERLKSGTASVVCLLNNFYPREAKVQWKVDNALQSGNSQESVTEQDSKDSTYSLSSRLTLSKADYEKHKVYACEVTHQGLSSPVTKSFNRGEC heavy 2: QMQLVQSGPEVKKPGTSVKVSCKASGYTFTDYNVDWVRQARGQRLEWIGDINPNDGGTIYAQKFQERVTITVDKSTSTAYMELSSLRSEDTAVYYCARNYRWFGAMDHWGQGTTVTVSSASTKGPSVFPLAPSSKSTSGGTAALGCLVKDYFPEPVTVSWNSGALTSGVHTFPAVLQSSGLYKLSSVVTVPSSSLGTQTYICNVNHKPSNTKVDKKVEPKSCDKTHTCPPCPAPEAAGGPSVFLFPPKPKDTLMISRTPEVTCVVVSVSHEDPEVKFNWYVDGVEVHNAKTKPREEQYNSTYRVVSVLTVLHQDWLNGKEYKCKVSNKALPAPIEKTISKAKGQPREPQVYVLPPSRDELTKNQVSLLCLVKGFYPSDIAVEWESNGQPENNYLTWPPVLDSDGSFFLYSKLTVDKSRWQQGNVFSCSVMHEALHNHYTQKSLSLSPG light 2: DIVMTQTPLSLSVTPGQPASISCKASQSLDYEGDSDMNWYLQKPGQPPQLLIYGASNLESGVPDRFSGSGSGTDFTLKISRVEAEDVGVYYCQQSTEDPRTFGGGTKVEIKRTVAAPSVFIFPPSDEELKSGTATVVCLLNNFYPREAKVQWKVDNALQSGNSQESVTEQDSKDSTYSLSSYLELSKADYEKHKVYACEVTHQGLSSPVTKSFNRGEC
 | 4.4 ratio | 1 ratio | Humanized 08A IgG4 S61N (lot 98AIO) (antibody, IgG4 S228P / kappa; also called 08A/HuPD1A-11 S61N S228P corrected IgG4 / Kappa) heavy: not shown light: DIVMTQTPLSLSVTPGQPASISCRASKSVSTSGFSYLHWYLQKPGQPPQLLIFLASNLESGVPDRFSGSGSGTDFTLKISRVEAEDVGVYYCQHSWELPLTFGQGTKLEIKRTVAAPSVFIFPPSDEQLKSGTASVVCLLNNFYPREAKVQWKVDNALQSGNSQESVTEQDSKDSTYSLSSTLTLSKADYEKHKVYACEVTHQGLSSPVTKSFNRGEC
 | 4.2 ratio | 1 ratio | Humanized 08A IgG4 S61N G56A (antibody, V domains shown, IgG4 S228P / kappa; also called 51AQK; 08A/HuPD1A-11 S61N VH G56A IgG4 S228P / Kappa) VH: EVQLVQSGAEVKKPGASVKVSCKASGYTFTSYYLYWVRQAPGQGLEWIGGVNPSNAGTNFNEKFKSRVTLTVDTSISTAYMELSRLRSDDTAVYYCTRRDSNYDGGFDYWGQGTTVTVSS VL: DIVMTQTPLSLSVTPGQPASISCRASKSVSTSGFSYLHWYLQKPGQPPQLLIFLASNLESGVPDRFSGSGSGTDFTLKISRVEAEDVGVYYCQHSWELPLTFGQGTKLEIKR
 | 0.8 ratio |  | Humanized 08A IgG4 S61N N55E (antibody, V domains shown, IgG4 S228P / kappa; also called 50AQK; 08A/HuPD1A-11 N55E S228P IgG4 / Kappa) VH: EVQLVQSGAEVKKPGASVKVSCKASGYTFTSYYLYWVRQAPGQGLEWIGGVNPSEGGTNFNEKFKSRVTLTVDTSISTAYMELSRLRSDDTAVYYCTRRDSNYDGGFDYWGQGTTVTVSS VL: DIVMTQTPLSLSVTPGQPASISCRASKSVSTSGFSYLHWYLQKPGQPPQLLIFLASNLESGVPDRFSGSGSGTDFTLKISRVEAEDVGVYYCQHSWELPLTFGQGTKLEIKR
 | 3 ratio | 1.7 ratio | Humanized 08A IgG4 Fab 098 G56A (antibody, V domains shown, IgG4 S228P / kappa; also called 90AVZ) VH: EVQLVQSGAEVKKPGASVKVSCKASGYTFTSYYLYWVRQAPGQGLEWIGGVNPSNAGTNFSEKFKSRVTLTVDTSISTAYMELSRLRSDDTAVYYCTRRLSHYDGGFDYWGQGTTVTVSS VL: DIVMTQTPLSLSVTPGQPASISCRASKSVSTSGFSYLHWYLQKPGQPPQLLIFLASNLESGVPDRFSGSGSGTDFTLKISRVEAEDVGVYYCQHSWELPLTFGQGTKLEIKR
 | 5.2 ratio |  | Humanized 08A IgG4 S61N (lot 67AGG) (antibody, IgG4 S228P / kappa; differs from 98AIO by an HFR4 mutation; also called 08A/HuPD1A-11 S61N WT S228P IgG4 / Kappa, with HFR4 mutation) heavy: not shown light: DIVMTQTPLSLSVTPGQPASISCRASKSVSTSGFSYLHWYLQKPGQPPQLLIFLASNLESGVPDRFSGSGSGTDFTLKISRVEAEDVGVYYCQHSWELPLTFGQGTKLEIKRTVAAPSVFIFPPSDEQLKSGTASVVCLLNNFYPREAKVQWKVDNALQSGNSQESVTEQDSKDSTYSLSSTLTLSKADYEKHKVYACEVTHQGLSSPVTKSFNRGEC
 | 1.7 ratio |  | Humanized 08A IgG4 (antibody, V domains shown, IgG4 S228P / kappa, no CDRH2 corrections; also called 73AGG; 08A/HuPD1A-11 S228P IgG4 / Kappa) VH: EVQLVQSGAEVKKPGASVKVSCKASGYTFTSYYLYWVRQAPGQGLEWIGGVNPSNGGTNFSEKFKSRVTLTVDTSISTAYMELSRLRSDDTAVYYCTRRDSNYDGGFDYWGQGTTVTVSS VL: DIVMTQTPLSLSVTPGQPASISCRASKSVSTSGFSYLHWYLQKPGQPPQLLIFLASNLESGVPDRFSGSGSGTDFTLKISRVEAEDVGVYYCQHSWELPLTFGQGTKLEIKR
 | 2.4 ratio | 0.6 ratio | Humanized 08A IgG4 G56A (antibody, V domains shown, IgG4 S228P / kappa; also called 89AVZ; 08A/HuPD1A-11 G56A IgG4 S228P / Kappa) VH: EVQLVQSGAEVKKPGASVKVSCKASGYTFTSYYLYWVRQAPGQGLEWIGGVNPSNAGTNFSEKFKSRVTLTVDTSISTAYMELSRLRSDDTAVYYCTRRDSNYDGGFDYWGQGTTVTVSS VL: DIVMTQTPLSLSVTPGQPASISCRASKSVSTSGFSYLHWYLQKPGQPPQLLIFLASNLESGVPDRFSGSGSGTDFTLKISRVEAEDVGVYYCQHSWELPLTFGQGTKLEIKR
 | 5.7 ratio | > 13 ratio | Humanized 08A IgG4 Fab 100 S61N G56A (antibody, V domains shown, also called 25AVE) VH: EVQLVQSGAEVKKPGASVKVSCKASGYTFTSYYLYWVRQAPGQGLEWIGGVNPSNAGTNFNEKFKSRVTLTVDTSISTAYMELSRLRSDDTAVYYCTRRLSHYDGGFDYWGQGTTVTVSS VL: DIVMTQTPLSLSVTPGQPASISCRASKSVSTSGFSYLHWYLQKPGQPPQLLIFLSKYRSSGVPDRFSGSGSGTDFTLKISRVEAEDVGVYYCSQAYHLPLTFGQGTKLEIKR
 | 0.5 ratio |  | Mouse 09A (antibody, mouse IgG1, kappa, V domains shown, Mouse IgG1/kappa; also called 03AFN; Mouse x [PD-1_H] mAb (clone 09A) IgG1 / Kappa) VH: QVQLQQPGAELVKPGTSVKLSCKASGYTFTNYYMYWVKQRPGQGLEWIGGINPSNGGTNFNEKFKNKATLTVDSSSSTTYMQLSSLTSEDSAVYYCTRRDYRFDMGFDYWGQGTTLTVSS VL: DIVLTQSPASLAVSLGQRAAISCRASKGVSTSGYSYLHWYQQKPGQSPKLLIYLASYLESGVPARFSGSGSGTDFTLNIHPVEEEDAATYYCQHSRDLPLTFGTGTKLELKR
 | 1 ratio |  | Mouse 08A (antibody, mouse IgG1, kappa, V domains shown, Mouse IgG1/kappa; also called 09AFF; parental mouse 08A antibody) VH: QVQLQQPGAELVKPGASVKLSCKASGYTFTSYYLYWMKQRPGQGLEWIGGVNPSNGGTNFSEKFKSKATLTVDKSSSTAYMQLSSLTSEDSAVYYCTRRDSNYDGGFDYWGQGTTLTVSS VL: DIVLTQSPTSLAVSLGQRATISCRASKSVSTSGFSYLHWYQQKPGQPPKLLIFLASNLESGVPARFSGSGSGTDFTLNIHPVEEEDAATYYCQHSWELPLTFGAGTKLELKR
 | 0.03 ratio |  | Mouse 08A N59E (antibody, mouse IgG1, kappa, V domains shown, also called 39AFL; Clone 1.08 N59E) VH: QVQLQQPGAELVKPGASVKLSCKASGYTFTSYYLYWMKQRPGQGLEWIGGVNPSNGGTEFSEKFKSKATLTVDKSSSTAYMQLSSLTSEDSAVYYCTRRDSNYDGGFDYWGQGTTLTVSS VL: DIVLTQSPTSLAVSLGQRATISCRASKSVSTSGFSYLHWYQQKPGQPPKLLIFLASNLESGVPARFSGSGSGTDFTLNIHPVEEEDAATYYCQHSWELPLTFGAGTKLELKR
 | 0.04 ratio |  | Mouse 08A N59Q (antibody, mouse IgG1, kappa, V domains shown, also called 38AFL; Clone 1.08 N59Q) VH: QVQLQQPGAELVKPGASVKLSCKASGYTFTSYYLYWMKQRPGQGLEWIGGVNPSNGGTQFSEKFKSKATLTVDKSSSTAYMQLSSLTSEDSAVYYCTRRDSNYDGGFDYWGQGTTLTVSS VL: DIVLTQSPTSLAVSLGQRATISCRASKSVSTSGFSYLHWYQQKPGQPPKLLIFLASNLESGVPARFSGSGSGTDFTLNIHPVEEEDAATYYCQHSWELPLTFGAGTKLELKR
 | 0.4 ratio |  | Mouse 08A N59A (antibody, mouse IgG1, kappa, V domains shown, also called 80AFH; Clone 1.08 N59A) VH: QVQLQQPGAELVKPGASVKLSCKASGYTFTSYYLYWMKQRPGQGLEWIGGVNPSNGGTAFSEKFKSKATLTVDKSSSTAYMQLSSLTSEDSAVYYCTRRDSNYDGGFDYWGQGTTLTVSS VL: DIVLTQSPTSLAVSLGQRATISCRASKSVSTSGFSYLHWYQQKPGQPPKLLIFLASNLESGVPARFSGSGSGTDFTLNIHPVEEEDAATYYCQHSWELPLTFGAGTKLELKR
